In IntAct's records for PubMed 18007657:

Target: T1, anm10_arath PRMT10 (UniProt Q9MAT5)
T1 sequence: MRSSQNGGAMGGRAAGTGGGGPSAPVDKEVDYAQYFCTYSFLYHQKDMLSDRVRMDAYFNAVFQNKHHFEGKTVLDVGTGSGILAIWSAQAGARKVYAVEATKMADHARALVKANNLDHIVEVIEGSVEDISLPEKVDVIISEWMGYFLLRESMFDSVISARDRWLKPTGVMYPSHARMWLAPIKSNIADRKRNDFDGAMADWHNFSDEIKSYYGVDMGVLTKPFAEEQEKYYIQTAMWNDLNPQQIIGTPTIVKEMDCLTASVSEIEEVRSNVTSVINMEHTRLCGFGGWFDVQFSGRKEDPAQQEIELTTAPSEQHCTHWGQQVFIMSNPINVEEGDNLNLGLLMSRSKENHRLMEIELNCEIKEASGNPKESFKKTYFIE

effect of a mutation on the interaction: decreasing interaction
Substance: Histone H4 (Bos taurus (Bovine)) (from UniProt P62803) R4L
